# Measurements as given in paper PMC5499549, “DNA substrate recognition and processing by the full-length human UPF1 helicase”.
# T1: hUPF1 (full-length) (Homo sapiens, UniProt Q92900-2 1-1118)
# T1 sequence: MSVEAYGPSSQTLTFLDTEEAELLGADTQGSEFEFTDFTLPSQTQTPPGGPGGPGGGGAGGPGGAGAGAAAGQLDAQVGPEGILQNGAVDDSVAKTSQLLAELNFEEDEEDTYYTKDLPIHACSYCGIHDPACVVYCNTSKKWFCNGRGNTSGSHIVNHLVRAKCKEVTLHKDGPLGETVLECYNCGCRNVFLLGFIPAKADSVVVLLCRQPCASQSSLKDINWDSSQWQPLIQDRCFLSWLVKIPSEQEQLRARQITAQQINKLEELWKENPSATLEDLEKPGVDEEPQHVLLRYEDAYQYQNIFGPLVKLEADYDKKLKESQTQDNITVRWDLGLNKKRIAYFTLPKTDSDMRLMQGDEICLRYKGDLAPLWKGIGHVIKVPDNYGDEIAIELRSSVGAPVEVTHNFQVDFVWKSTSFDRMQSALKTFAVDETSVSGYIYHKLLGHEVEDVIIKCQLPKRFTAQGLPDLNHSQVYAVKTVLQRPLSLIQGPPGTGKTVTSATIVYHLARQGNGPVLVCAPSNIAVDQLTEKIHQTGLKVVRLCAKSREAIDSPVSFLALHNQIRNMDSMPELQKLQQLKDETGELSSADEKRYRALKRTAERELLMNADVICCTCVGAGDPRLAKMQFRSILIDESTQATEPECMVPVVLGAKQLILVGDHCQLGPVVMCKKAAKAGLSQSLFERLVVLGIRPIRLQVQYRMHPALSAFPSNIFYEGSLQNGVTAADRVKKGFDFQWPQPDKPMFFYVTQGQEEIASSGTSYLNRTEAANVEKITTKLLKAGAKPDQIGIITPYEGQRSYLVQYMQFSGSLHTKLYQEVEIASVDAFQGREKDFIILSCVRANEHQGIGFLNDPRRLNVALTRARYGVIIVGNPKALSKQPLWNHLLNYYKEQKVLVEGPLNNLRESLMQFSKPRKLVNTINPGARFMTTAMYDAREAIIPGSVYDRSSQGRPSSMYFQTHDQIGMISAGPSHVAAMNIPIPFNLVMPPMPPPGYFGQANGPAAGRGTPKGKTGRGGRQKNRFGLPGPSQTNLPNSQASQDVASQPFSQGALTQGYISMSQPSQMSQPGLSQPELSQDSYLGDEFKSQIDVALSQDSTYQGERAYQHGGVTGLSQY
# Assays:
# [1] = target: T1, hUPF1 (full-length); experiment: EMSA; equivalent to G4 ss precursor; 25 mM HEPES-NaOH pH 7.2, 135 mM NaCl, 2 mM DTT, 1 mg/ml acetylated BSA, 0.1% NP40, 20 min; EMSA 20 C, MST 22 C (20 nM DNA); no nucleotide cofactor or Mg2+ unles; conditions: protein: recombinant; tags: GST and His tags removed (thrombin, TEV); residual ENLYFQ linker likely at C-terminus; label: 32P
# [2] = target: T1, hUPF1 (full-length); experiment: competition; vs 0.25 nM 32P-DNA35, 10 nM hUPF1; 25 mM HEPES-NaOH pH 7.2, 135 mM NaCl, 2 mM DTT, 1 mg/ml acetylated BSA, 0.1% NP40, 20 min; EMSA 20 C, MST 22 C (20 nM DNA); no nucleotide cofactor or Mg2+ unles; conditions: protein: recombinant, tags: GST and His tags removed (thrombin, TEV), residual ENLYFQ linker likely at C-terminus
# [3] = target: T1, hUPF1 (full-length); experiment: MST; fit up to 313 nM hUPF1; 25 mM HEPES-NaOH pH 7.2, 135 mM NaCl, 2 mM DTT, 1 mg/ml acetylated BSA, 0.1% NP40, 20 min; EMSA 20 C, MST 22 C (20 nM DNA); no nucleotide cofactor or Mg2+ unles; conditions: protein: recombinant; tags: GST and His tags removed (thrombin, TEV); residual ENLYFQ linker likely at C-terminus; label: 5' Alexa 647
# [4] = target: T1, hUPF1 (full-length); experiment: EMSA; most or all bound at top concentrations; multimerization; 25 mM HEPES-NaOH pH 7.2, 135 mM NaCl, 2 mM DTT, 1 mg/ml acetylated BSA, 0.1% NP40, 20 min; EMSA 20 C, MST 22 C (20 nM DNA); no nucleotide cofactor or Mg2+ unles; conditions: protein: recombinant; tags: GST and His tags removed (thrombin, TEV); residual ENLYFQ linker likely at C-terminus; label: 32P
# [5] = target: T1, hUPF1 (full-length); experiment: EMSA; no nucleotide cofactor; 25 mM HEPES-NaOH pH 7.2, 135 mM NaCl, 2 mM DTT, 1 mg/ml acetylated BSA, 0.1% NP40, 20 min; EMSA 20 C, MST 22 C (20 nM DNA); no nucleotide cofactor or Mg2+ unles; conditions: protein: recombinant; tags: GST and His tags removed (thrombin, TEV); residual ENLYFQ linker likely at C-terminus; label: 5' 32P (EMSA)
# [6] = target: T1, hUPF1 (full-length); experiment: EMSA; 25 mM HEPES-NaOH pH 7.2, 135 mM NaCl, 2 mM DTT, 1 mg/ml acetylated BSA, 0.1% NP40, 20 min; EMSA 20 C, MST 22 C (20 nM DNA); no nucleotide cofactor or Mg2+ unles; conditions: protein: recombinant; tags: GST and His tags removed (thrombin, TEV); residual ENLYFQ linker likely at C-terminus; label: 5' 32P (EMSA)
# [7] = target: T1, hUPF1 (full-length); experiment: MST; second experimental group; fit up to 156 nM; 25 mM HEPES-NaOH pH 7.2, 135 mM NaCl, 2 mM DTT, 1 mg/ml acetylated BSA, 0.1% NP40, 20 min; EMSA 20 C, MST 22 C (20 nM DNA); no nucleotide cofactor or Mg2+ unles; conditions: protein: recombinant; tags: GST and His tags removed (thrombin, TEV); residual ENLYFQ linker likely at C-terminus; label: 5' Alexa 647
# [8] = target: T1, hUPF1 (full-length); experiment: MST; fit up to 156 nM hUPF1; 25 mM HEPES-NaOH pH 7.2, 135 mM NaCl, 2 mM DTT, 1 mg/ml acetylated BSA, 0.1% NP40, 20 min; EMSA 20 C, MST 22 C (20 nM DNA); no nucleotide cofactor or Mg2+ unles; conditions: protein: recombinant; tags: GST and His tags removed (thrombin, TEV); residual ENLYFQ linker likely at C-terminus; label: 5' Alexa 647
# [9] = target: T1, hUPF1 (full-length); experiment: EMSA; 25 mM HEPES-NaOH pH 7.2, 135 mM NaCl, 2 mM DTT, 1 mg/ml acetylated BSA, 0.1% NP40, 20 min; EMSA 20 C, MST 22 C (20 nM DNA); no nucleotide cofactor or Mg2+ unles; conditions: protein: recombinant; tags: GST and His tags removed (thrombin, TEV); residual ENLYFQ linker likely at C-terminus; label: 32P (EMSA)
# [10] = target: T1, hUPF1 (full-length); experiment: MST; biphasic, low-amplitude first phase; 25 mM HEPES-NaOH pH 7.2, 135 mM NaCl, 2 mM DTT, 1 mg/ml acetylated BSA, 0.1% NP40, 20 min; EMSA 20 C, MST 22 C (20 nM DNA); no nucleotide cofactor or Mg2+ unles; conditions: protein: recombinant; tags: GST and His tags removed (thrombin, TEV); residual ENLYFQ linker likely at C-terminus; label: 5' Alexa 647
# [11] = target: T1, hUPF1 (full-length); experiment: MST; 25 mM HEPES-NaOH pH 7.2, 135 mM NaCl, 2 mM DTT, 1 mg/ml acetylated BSA, 0.1% NP40, 20 min; EMSA 20 C, MST 22 C (20 nM DNA); no nucleotide cofactor or Mg2+ unles; conditions: protein: recombinant; tags: GST and His tags removed (thrombin, TEV); residual ENLYFQ linker likely at C-terminus; label: 5' Alexa 647
binder,measurement,setting,value
TTTTTTTTTTTTTTTTTT (ssDNA) [d(T)18],binding result,[1],binds
CACAAGCAACCAAUCGGUUCGACACUCAUACUGGC (ssRNA) [RNA35],IC50,[2]; label: 32P (EMSA),50.4 nM
TTTTTTTTTTTTTTTTTTTTTTTTT (ssDNA) [d(T)25-Alexa647],Kd,[3],5.98 ± 0.51 nM
d(T)55 (ssDNA) DNA: TTTTTTTTTTTTTTTTTTTTTTTTTTTTTTTTTTTTTTTTTTTTTTTTTTTTTTT,binding result,[4],binds
TTTTTTTTTTTTTTTTTTTTTTTTTTTTTTTTTTT (ssDNA) [d(T)35],IC50,[2]; label: 5' 32P (EMSA),11.5 nM
same,Kd,[5],~1 nM
same,binding signal,[6],~2 fold higher affinity than (U)35
TTTTTTTTTTTTTTTTTTTTTTTTTTTTTTTTTTT (ssDNA) [d(T)35-Alexa647],Kd,[7],6.01 ± 0.85 nM
same,Kd,[8],4.05 ± 0.58 nM
AAAAAAAAAAAAAAAAAAAAAAAAAAAAAAAAAAA (ssRNA) [(A)35],binding signal,[9],~5 fold higher affinity than (C)35
same,IC50,[2]; label: 32P (EMSA),172 nM
AAAAAAAAAAAAAAAAAAAAAAAAAAAAAAAAAAA (ssDNA) [d(A)35-Alexa647],Kd,[10],4200 ± 3730 nM
CACAAGCAACCAATCGGTTCGACACTCATACTGGC (ssDNA) [DNA35],IC50,[2]; label: 5' 32P (EMSA),31.5 nM
same,binding signal,[6],~3 fold higher affinity than RNA35
CACAAGCAACCAATCGGTTCGACACTCATACTGGC (ssDNA) [DNA35-Alexa647],Kd,[8],9.8 ± 1 nM
TTTTTTTTTTTTTTT (ssDNA) [d(T)15-Alexa647],Kd,[11],39.4 ± 3.6 nM
UUUUUUUUUUUUUUUUUUUUUUUUUUUUUUUUUUU (ssRNA) [(U)35],IC50,[2]; label: 32P (EMSA),12.3 nM
TTTTTTTTTTTTTTTTTTTTTTTTTTTTTTTTTTTTTTTTTTTTT (ssDNA) [d(T)45],binding result,[4],binds
